Data published in IntAct's records for PubMed 31515488.

B1: Beta-taxilin (Homo sapiens), Q8N3L3 (parent)
chain: MEANHSEQLSAERQSTPPGDSSSLPSHNGLEKEDGQDSPTPVQPPEKEASVHPDISEELNRQLEDIINTYGSAASTAGKEGSARASEQPENAESPDNEDGDCEETTEEAGREPVASGEPPTVKEPVSNKEQKLEKKILKGLGKEANLLMQNLNKLQTPEEKFDFLFKKYAELLDEHRTEQKKLKLLQKKQVQIQKEKDQLQGEHSRAILARSKLESLCRELQRHNKTLKEEALQRAREEEEKRKEITSHFQSTLTDIQGQIEQQSERNMKLCQENTELAEKLKSIIDQYELREEHLDKIFKHRELQQKLVDAKLEQAQEMMKEAEERHKREKEYLLNQAAEWKLQAKVLKEQETVLQAQLTLYSGRFEEFQSTLTKSNEVFATFKQEMDKTTKKMKKLEKDTATWKARFENCNKALLDMIEEKALRAKEYECFVMKIGRLENLCRALQEERNELHKKIRDAEISEKDDQSQHNSDEEPESNVSVDQEIDAEEVNSVQTAVKNLATAFMIIHHPESTPHQSKETQPEIGSSQESADAALKEPEQPPLIPSRDSESPLPPLTPQAEAEGGSDAEPPSKASNSPAGLGAETQCEGLPVGAQADQASWKPEAEASGQAPQAPTEASLQKMEADVPAPACAAEEHVAAMVPACEPSRQPPRAAAEELPVGASAGPQPRNVADTNLEGVD
partner: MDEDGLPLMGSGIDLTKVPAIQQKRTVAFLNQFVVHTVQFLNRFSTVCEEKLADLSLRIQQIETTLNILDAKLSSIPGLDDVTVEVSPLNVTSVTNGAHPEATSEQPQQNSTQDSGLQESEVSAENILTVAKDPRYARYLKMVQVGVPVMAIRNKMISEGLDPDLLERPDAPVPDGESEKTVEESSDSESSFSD
B2: Sorting nexin-15 (Homo sapiens), Q9NRS6 (parent)
chain: MSRQAKDDFLRHYTVSDPRTHPKGYTEYKVTAQFISKKDPEDVKEVVVWKRYSDFRKLHGDLAYTHRNLFRRLEEFPAFPRAQVFGRFEASVIEERRKGAEDLLRFTVHIPALNNSPQLKEFFRGGEVTRPLEVSRDLHILPPPLIPTPPPDDPRLSQLLPAERRGLEELEVPVDPPPSSPAQEALDLLFNCESTEEASGSPARGPLTEAELALFDPFSKEEGAAPSPTHVAELATMEVESARLDQEPWEPGGQEEEEDGEGGPTPAYLSQATELITQALRDEKAGAYAAALQGYRDGVHVLLQGVPSDPLPARQEGVKKKAAEYLKRAEEILRLHLSQLPP
B3: Heat shock factor protein 2 (Homo sapiens), Q03933 (parent)
chain: MKQSSNVPAFLSKLWTLVEETHTNEFITWSQNGQSFLVLDEQRFAKEILPKYFKHNNMASFVRQLNMYGFRKVVHIDSGIVKQERDGPVEFQHPYFKQGQDDLLENIKRKVSSSKPEENKIRQEDLTKIISSAQKVQIKQETIESRLSELKSENESLWKEVSELRAKHAQQQQVIRKIVQFIVTLVQNNQLVSLKRKRPLLLNTNGAQKKNLFQHIVKEPTDNHHHKVPHSRTEGLKPRERISDDIIIYDVTDDNADEENIPVIPETNEDVISDPSNCSQYPDIVIVEDDNEDEYAPVIQSGEQNEPARESLSSGSDGSSPLMSSAVQLNGSSSLTSEDPVTMMDSILNDNINLLGKVELLDYLDSIDCSLEDFQAMLSGRQFSIDPDLLVDLFTSSVQMNPTDYINNTKSENKGLETTKNNVVQPVSEEGRKSKSKPDKQLIQYTAFPLLAFLDGNPASSVEQASTTASSEVLSSVDKPIEVDELLDSSLDPEPTQSKLVRLEPLTEAEASEATLFYLCELAPAPLDSDMPLLDS
B4: Keratin-associated protein 26-1 (Homo sapiens), Q6PEX3 (parent)
chain: MSCPNYCSGNSNSGSLRTSRHIPLTSIDLCPTSVSCGDVLYLPTSSQDHTWVTDNCQETCGEPTSCQPVHCETGNLETSCGSSTAYYVPRPCQGSSFLPASFFSSSCLPVSCRPQRYVSSGCRPLRPLLNSYQPIGDCVPNAYRPQFCLSKSCQPQNLLTSGCQPSSCLAYRPQSLHVVSSSLRPLGPLFSGCQPLTHVFSTCRPSCSGL
partner: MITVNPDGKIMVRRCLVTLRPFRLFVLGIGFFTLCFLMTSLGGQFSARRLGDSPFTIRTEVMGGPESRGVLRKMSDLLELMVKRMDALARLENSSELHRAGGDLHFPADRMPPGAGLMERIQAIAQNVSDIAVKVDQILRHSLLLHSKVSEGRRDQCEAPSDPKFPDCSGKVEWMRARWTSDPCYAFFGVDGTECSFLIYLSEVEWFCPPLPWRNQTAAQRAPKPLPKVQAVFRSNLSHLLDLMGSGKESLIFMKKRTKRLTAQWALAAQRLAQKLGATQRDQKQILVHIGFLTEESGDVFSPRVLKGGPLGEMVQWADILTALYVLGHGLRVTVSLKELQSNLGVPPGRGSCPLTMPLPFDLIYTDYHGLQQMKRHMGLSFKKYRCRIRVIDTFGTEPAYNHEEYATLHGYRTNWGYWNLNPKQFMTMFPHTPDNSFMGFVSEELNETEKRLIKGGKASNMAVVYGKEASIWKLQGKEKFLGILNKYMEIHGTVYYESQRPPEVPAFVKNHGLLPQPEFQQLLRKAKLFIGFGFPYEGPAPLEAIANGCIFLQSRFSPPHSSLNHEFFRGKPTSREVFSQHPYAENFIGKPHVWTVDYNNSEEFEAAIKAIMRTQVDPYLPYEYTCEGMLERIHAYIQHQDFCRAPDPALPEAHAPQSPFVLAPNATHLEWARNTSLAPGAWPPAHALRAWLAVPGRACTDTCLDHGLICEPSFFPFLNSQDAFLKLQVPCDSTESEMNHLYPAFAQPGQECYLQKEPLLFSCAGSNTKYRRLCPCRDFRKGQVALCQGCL
B5: Keratin-associated protein 3-2 (Homo sapiens), Q9BYR7 (parent)
chain: MDCCASRSCSVPTGPATTICSSDKSCRCGVCLPSTCPHTVWLLEPICCDNCPPPCHIPQPCVPTCFLLNSCQPTPGLETLNLTTFTQPCCEPCLPRGC
partner: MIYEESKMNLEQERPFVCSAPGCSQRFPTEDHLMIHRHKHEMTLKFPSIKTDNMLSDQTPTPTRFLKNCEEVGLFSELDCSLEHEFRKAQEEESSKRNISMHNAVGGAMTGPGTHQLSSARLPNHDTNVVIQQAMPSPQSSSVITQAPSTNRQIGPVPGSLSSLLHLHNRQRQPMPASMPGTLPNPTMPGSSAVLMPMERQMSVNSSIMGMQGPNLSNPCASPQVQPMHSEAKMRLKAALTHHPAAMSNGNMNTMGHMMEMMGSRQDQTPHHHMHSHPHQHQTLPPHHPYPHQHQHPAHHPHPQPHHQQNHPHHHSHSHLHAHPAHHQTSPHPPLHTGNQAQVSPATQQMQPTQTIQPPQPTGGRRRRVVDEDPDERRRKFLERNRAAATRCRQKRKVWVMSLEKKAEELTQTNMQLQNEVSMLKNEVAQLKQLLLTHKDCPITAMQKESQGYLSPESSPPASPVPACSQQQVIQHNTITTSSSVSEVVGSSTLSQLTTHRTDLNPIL
B6: PDZ and LIM domain protein 5 (Homo sapiens), Q96HC4 (parent)
chain: MSNYSVSLVGPAPWGFRLQGGKDFNMPLTISSLKDGGKAAQANVRIGDVVLSIDGINAQGMTHLEAQNKIKGCTGSLNMTLQRASAAPKPEPVPVQKGEPKEVVKPVPITSPAVSKVTSTNNMAYNKAPRPFGSVSSPKVTSIPSPSSAFTPAHATTSSHASPSPVAAVTPPLFAASGLHANANLSADQSPSALSAGKTAVNVPRQPTVTSVCSETSQELAEGQRRGSQGDSKQQNGPPRKHIVERYTEFYHVPTHSDASKKRLIEDTEDWRPRTGTTQSRSFRILAQITGTEHLKESEADNTKKANNSQEPSPQLASSVASTRSMPESLDSPTSGRPGVTSLTAAAAFKPVGSTGVIKSPSWQRPNQGVPSTGRISNSATYSGSVAPANSALGQTQPSDQDTLVQRAEHIPAGKRTPMCAHCNQVIRGPFLVALGKSWHPEEFNCAHCKNTMAYIGFVEEKGALYCELCYEKFFAPECGRCQRKILGEVISALKQTWHVSCFVCVACGKPIRNNVFHLEDGEPYCETDYYALFGTICHGCEFPIEAGDMFLEALGYTWHDTCFVCSVCCESLEGQTFFSKKDKPLCKKHAHSVNF

Variants of: B1
Conditions: with wasc3_human WASHC3, Q9Y3C0

Variant | effect of a mutation on the interaction
I527T | with no effect

Variants of: B2
Conditions: with reep6_human REEP6, Q96HR9
reep6_human REEP6, Q96HR9, sequence (Q96HR9 whole entry): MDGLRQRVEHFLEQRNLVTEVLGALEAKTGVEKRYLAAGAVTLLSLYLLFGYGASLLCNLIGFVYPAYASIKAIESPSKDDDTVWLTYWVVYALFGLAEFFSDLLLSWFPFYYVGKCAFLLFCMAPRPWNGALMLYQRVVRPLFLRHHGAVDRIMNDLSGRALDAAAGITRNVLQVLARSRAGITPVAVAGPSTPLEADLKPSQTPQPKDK

Variant | effect of a mutation on the interaction
R314C | with no effect
R334C | with no effect

Variants of: B2
Conditions: with ar6p1_human ARL6IP1, Q15041
ar6p1_human ARL6IP1, Q15041, sequence (Q15041 whole entry): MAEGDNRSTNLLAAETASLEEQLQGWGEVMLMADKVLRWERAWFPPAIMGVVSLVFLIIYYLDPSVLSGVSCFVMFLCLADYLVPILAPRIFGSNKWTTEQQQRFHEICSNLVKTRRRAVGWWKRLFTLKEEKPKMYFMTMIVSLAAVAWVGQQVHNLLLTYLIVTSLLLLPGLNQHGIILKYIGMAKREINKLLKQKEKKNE

Variant | effect of a mutation on the interaction
R314C | with no effect
R334C | with no effect

Variants of: B3
Conditions: with mtus2_human MTUS2, Q5JR59
mtus2_human MTUS2, Q5JR59, sequence (Q5JR59 whole entry): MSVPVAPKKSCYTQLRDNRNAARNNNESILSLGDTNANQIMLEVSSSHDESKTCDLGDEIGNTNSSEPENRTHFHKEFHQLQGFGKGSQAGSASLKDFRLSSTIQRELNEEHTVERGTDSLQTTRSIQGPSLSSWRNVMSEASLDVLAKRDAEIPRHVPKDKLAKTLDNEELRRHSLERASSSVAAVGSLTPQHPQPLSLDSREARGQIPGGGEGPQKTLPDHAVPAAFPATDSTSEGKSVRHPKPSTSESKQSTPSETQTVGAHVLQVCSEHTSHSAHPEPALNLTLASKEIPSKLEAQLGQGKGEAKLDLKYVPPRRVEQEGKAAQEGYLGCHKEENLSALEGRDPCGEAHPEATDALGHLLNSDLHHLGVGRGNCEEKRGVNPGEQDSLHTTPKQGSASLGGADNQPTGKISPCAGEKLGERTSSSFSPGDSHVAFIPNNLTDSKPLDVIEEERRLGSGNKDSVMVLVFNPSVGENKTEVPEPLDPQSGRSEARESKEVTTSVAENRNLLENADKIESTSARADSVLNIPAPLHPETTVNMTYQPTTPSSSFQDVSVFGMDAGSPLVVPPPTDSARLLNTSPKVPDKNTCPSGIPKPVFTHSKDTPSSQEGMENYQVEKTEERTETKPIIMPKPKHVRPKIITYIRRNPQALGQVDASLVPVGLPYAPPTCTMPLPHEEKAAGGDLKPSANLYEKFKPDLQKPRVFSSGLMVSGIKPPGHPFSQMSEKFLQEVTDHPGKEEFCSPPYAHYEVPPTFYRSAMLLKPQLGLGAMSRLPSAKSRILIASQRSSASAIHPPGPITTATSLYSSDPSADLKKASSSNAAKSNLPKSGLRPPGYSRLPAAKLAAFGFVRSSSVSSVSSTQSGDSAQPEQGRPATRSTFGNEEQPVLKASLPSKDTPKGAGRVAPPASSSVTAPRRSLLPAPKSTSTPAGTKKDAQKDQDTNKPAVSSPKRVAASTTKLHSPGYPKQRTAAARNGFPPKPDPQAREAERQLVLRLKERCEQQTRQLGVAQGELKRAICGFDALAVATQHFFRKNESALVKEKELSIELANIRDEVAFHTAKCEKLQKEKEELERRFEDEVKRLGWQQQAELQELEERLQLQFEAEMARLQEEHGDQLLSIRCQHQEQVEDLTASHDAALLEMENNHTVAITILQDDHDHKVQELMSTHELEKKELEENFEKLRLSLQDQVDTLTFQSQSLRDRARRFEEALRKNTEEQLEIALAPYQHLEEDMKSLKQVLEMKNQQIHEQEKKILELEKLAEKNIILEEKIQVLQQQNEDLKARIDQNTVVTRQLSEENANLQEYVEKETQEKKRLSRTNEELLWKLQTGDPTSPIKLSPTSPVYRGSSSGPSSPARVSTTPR

Variant | effect of a mutation on the interaction
Q34H | with no effect
D222V | with no effect
V287I | with no effect

Variants of: B3
Conditions: with nup62_human NUP62, P37198
nup62_human NUP62, P37198, sequence (P37198 whole entry): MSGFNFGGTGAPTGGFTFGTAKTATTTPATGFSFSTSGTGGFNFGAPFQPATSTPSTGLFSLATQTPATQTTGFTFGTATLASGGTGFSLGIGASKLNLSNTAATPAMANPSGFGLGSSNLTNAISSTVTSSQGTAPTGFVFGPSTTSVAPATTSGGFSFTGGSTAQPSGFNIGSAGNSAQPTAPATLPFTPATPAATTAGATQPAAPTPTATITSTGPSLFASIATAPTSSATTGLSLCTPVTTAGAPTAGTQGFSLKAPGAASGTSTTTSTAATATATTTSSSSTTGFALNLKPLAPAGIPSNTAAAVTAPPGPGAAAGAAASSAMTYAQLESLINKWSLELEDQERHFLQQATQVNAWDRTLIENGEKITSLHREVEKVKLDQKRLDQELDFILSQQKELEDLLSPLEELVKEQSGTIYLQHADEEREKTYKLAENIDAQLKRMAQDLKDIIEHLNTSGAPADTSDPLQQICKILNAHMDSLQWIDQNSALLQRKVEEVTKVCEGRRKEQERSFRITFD

Variant | effect of a mutation on the interaction
Q34H | with no effect
D222V | with no effect
V287I | with no effect

Variants of: B3
Conditions: with wdr5_human WDR5, P61964

Variant | effect of a mutation on the interaction
Q34H | with no effect
D222V | with no effect
V287I | with no effect

Variants of: B3
Conditions: with tpm3_human TPM3, P06753
tpm3_human TPM3, P06753, sequence (P06753 whole entry): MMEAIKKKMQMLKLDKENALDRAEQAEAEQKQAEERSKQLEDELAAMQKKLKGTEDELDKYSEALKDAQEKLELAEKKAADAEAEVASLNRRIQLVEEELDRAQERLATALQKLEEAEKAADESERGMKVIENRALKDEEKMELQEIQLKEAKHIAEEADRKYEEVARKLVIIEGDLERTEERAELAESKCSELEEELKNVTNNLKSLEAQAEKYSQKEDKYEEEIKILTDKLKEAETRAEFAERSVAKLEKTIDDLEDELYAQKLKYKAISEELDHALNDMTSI

Variant | effect of a mutation on the interaction
Q34H | with no effect
D222V | with no effect
V287I | with no effect

Variants of: B4
Conditions: with mgt5b_human MGAT5B

Variant | effect of a mutation on the interaction
S26Y | with no effect

Variants of: B5
Conditions: with creb5_human CREB5, Q02930

Variant | effect of a mutation on the interaction
S8G | with no effect
R27C | with no effect

Variants of: B6
Conditions: with cc136_human CCDC136, Q96JN2
cc136_human CCDC136, Q96JN2, sequence (Q96JN2 whole entry): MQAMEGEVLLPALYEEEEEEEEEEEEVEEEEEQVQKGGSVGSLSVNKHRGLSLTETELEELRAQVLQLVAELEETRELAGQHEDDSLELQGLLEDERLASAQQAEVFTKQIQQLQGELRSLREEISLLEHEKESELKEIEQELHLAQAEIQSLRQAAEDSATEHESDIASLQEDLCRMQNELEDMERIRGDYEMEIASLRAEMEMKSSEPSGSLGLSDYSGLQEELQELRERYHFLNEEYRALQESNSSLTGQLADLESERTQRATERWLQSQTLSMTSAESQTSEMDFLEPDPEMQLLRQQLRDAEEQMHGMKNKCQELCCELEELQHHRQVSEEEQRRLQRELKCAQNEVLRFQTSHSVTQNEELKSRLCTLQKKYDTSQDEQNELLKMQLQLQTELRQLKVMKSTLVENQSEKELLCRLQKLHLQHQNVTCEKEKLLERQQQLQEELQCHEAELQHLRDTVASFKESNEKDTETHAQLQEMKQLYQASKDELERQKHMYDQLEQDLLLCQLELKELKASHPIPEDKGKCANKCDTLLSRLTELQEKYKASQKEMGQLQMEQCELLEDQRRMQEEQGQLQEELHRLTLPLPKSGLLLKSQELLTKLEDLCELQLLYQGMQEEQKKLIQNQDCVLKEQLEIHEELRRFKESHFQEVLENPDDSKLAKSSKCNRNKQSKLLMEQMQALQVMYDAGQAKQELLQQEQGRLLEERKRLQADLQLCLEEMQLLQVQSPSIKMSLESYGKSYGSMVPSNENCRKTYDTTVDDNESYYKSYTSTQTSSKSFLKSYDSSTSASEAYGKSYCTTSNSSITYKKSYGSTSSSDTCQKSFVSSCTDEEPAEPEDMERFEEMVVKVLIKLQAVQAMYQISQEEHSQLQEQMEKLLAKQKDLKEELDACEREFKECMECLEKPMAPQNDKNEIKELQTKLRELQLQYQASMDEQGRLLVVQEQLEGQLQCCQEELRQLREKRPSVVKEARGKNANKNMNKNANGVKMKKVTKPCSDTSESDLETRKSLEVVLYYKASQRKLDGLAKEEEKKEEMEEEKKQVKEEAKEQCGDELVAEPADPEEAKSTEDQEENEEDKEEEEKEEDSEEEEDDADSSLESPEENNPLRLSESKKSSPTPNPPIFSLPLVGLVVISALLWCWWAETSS

Variant | effect of a mutation on the interaction
S136F | with no effect
P388S | with no effect

Variants of: B6
Conditions: with coil_human COIL

Variant | effect of a mutation on the interaction
P388S | with no effect
